Consider one molecule from patent US20230272055A1 (Incyte, published 2023).

In experiment [1] the target is MBP protein (UniProt P0AEX9 27-392 = MBP). In words: SPR (Biacore 8K), antibody captured on anti-human IgG (Fc), MBP injected.
Experiment [2] concerns the target T1, recombinant Flag tag_GFP_tev_hmutCALR Type 1 (human).
T1 construct: also called FLAG-GFP-tev-mutCALR
The experiment is described as follows: HTRF competition: preformed complex of 5 nM Flag-GFP-mutCALR Type 1 and 80 nM His-MPL, anti-FLAG-Europium / anti-6xHis-APC, 90 min reading; blocked ligand: His-MPL. On the procedure:
HTRF detection solution (2 nM anti-FLAG-Europium, and 100 nM anti-6×His-SureLight® APC) was then added and the plate was read on BMG PHERAstar FSX using kinetic HTRF protocol, obtaining readings every 15 minutes for 120 minutes total. […] Percent-of-control values were obtained by dividing the background-subtracted HTRF Ratios for each test well by the buffer control well in the same plate row.

B1: anti-mutCALR antibody clone 32 (antibody, human IgG1, lambda, V domains shown)
VH: QVQLVQSGAEVKKPGATVKISCKVSGYSFTDYFIHWVQQAPGKGLAWVGLVDPEDGETIYAEKFQGRVTITADTSTDTAYMELSSLRSEDTAVYYCATPGGILTDPDAFDIWGQGTMVTVSS
VL: QSALTQPASVSGSPGQSITISCTGTSSDVGGYNYVSWYQQHPGKAPKLMIYEVSNRPSGVSNRFSGSKSGNTASLTISGLQAEDEADYYCSSYTSSSTPYVFGTGTKVTVLG
notes: also called anti-mutCALR antibody 32
In the case of B1, the results for the binding result in experiment [1] and in experiment [2] were “no binding (tested: 250 nM)” and “binds”, respectively.
